The values below come from the supplement of paper PMC10724198.

The test system of data set [1] is Saccharomyces cerevisiae. The data set is described as follows: protein stability index of tFT-peptide fusion (C-terminal peptide) (PSI (0-1 scale)); higher = more stable (slower turnover). As to the method: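 MPS profiling in S. cerevisiae of the tFT-X12 degron library: putative degron peptides plus stable controls, 12 aa, fused to the C-terminus of a sfGFP-mCherry timer. Cells are FACS-sorted into 8 mCherry/sfGFP bins and deep-sequenced. PSI runs from 0 (unstable) to 1 (stable). Backgrounds are wild type, das1Δ and doa10Δ at 30 °C, and wild type, das1Δ, cdc34-1 and cdc53-1 at 37 °C; 2-3 technical replicates each.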

The subject of data set [2] is Saccharomyces cerevisiae. The data set is described as above. As to conditions: genetic background: wild type; temperature: 30 C.
Setting [3] is: genetic background: cdc34-1, temperature: 37 C.
The mark [4] stands for this setting: genetic background: cdc53-1, temperature: 37 C.
The mark [5] stands for this setting: genetic background: das1 deletion, temperature: 30 C.
The mark [6] stands for this setting: genetic background: das1 deletion, temperature: 37 C.
Setting [7] is: genetic background: doa10 deletion, temperature: 30 C.
The mark [8] stands for this setting: genetic background: wild type, temperature: 30 C.
Setting [9] is: genetic background: wild type, temperature: 37 C.

± gives the standard deviation of the averaged measurements.
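Further: PSI is a weighted mean of sequencing reads over stability bins, variants kept only with over 10 reads, mCherry proximal and sfGFP distal, peptide attached via GGGS linker.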

Take IDSEVHLWKRSA: the protein stability index in the data set on Saccharomyces cerevisiae [1] (setting [3]) came out at 0.618 ± 0.046; in the data set with Saccharomyces cerevisiae [1] (setting [4]), 0.725 ± 0.012; with Saccharomyces cerevisiae [1] (setting [5]), 0.642 ± 0.017; in the data set with Saccharomyces cerevisiae [1] (setting [6]), 0.719 ± 0.037; with Saccharomyces cerevisiae [1] (setting [7]), 0.16 ± 0.016; with Saccharomyces cerevisiae [1] (setting [8]), 0.176 ± 0.027. Besides, the protein stability index with Saccharomyces cerevisiae [1] (setting [9]) came to 0.405 ± 0.011; in the data set on Saccharomyces cerevisiae [2], 0.336 ± 0.058.

For the sequence IFAVLVSGSFFF, the protein stability index turned out to be 0.425 ± 0.018 with Saccharomyces cerevisiae [1] (setting [3]); 0.541 ± 0.014 in the data set on Saccharomyces cerevisiae [1] (setting [4]); 0.324 ± 0.051 in the data set with Saccharomyces cerevisiae [1] (setting [5]); 0.545 ± 0.017 with Saccharomyces cerevisiae [1] (setting [6]); 0.318 ± 0.0053 in the data set on Saccharomyces cerevisiae [1] (setting [7]); 0.336 ± 0.041 in the data set with Saccharomyces cerevisiae [1] (setting [8]). The protein stability index with Saccharomyces cerevisiae [1] (setting [9]) amounted to 0.509 ± 0.017; in the data set on Saccharomyces cerevisiae [2], 0.4288 ± 0.00067.

For IFLGFGPLFGRL, the protein stability index with Saccharomyces cerevisiae [1] (setting [3]) stood at 0.862 ± 0.044; in the data set on Saccharomyces cerevisiae [1] (setting [4]), 0.878 ± 0.011; in the data set on Saccharomyces cerevisiae [1] (setting [5]), 0.727 ± 0.03; in the data set on Saccharomyces cerevisiae [1] (setting [6]), 0.817 ± 0.034; in the data set on Saccharomyces cerevisiae [1] (setting [7]) it was 0.726 ± 0.037; in the data set with Saccharomyces cerevisiae [1] (setting [8]), 0.73 ± 0.0083. Further, the figures for the protein stability index in the data set with Saccharomyces cerevisiae [1] (setting [9]) and with Saccharomyces cerevisiae [2] were 0.824 ± 0.03 and 0.777 ± 0.034, respectively.

As to IGSFFLFFLLIF, the protein stability index with Saccharomyces cerevisiae [1] (setting [3]) came out at 0.281 ± 0.025; in the data set with Saccharomyces cerevisiae [1] (setting [4]), 0.291 ± 0.029; with Saccharomyces cerevisiae [1] (setting [5]), 0.3 ± 0.025; in the data set on Saccharomyces cerevisiae [1] (setting [6]), 0.383 ± 0.0054; in the data set on Saccharomyces cerevisiae [1] (setting [7]), 0.354 ± 0.027; in the data set on Saccharomyces cerevisiae [1] (setting [8]), 0.245 ± 0.045. In addition, the results for the protein stability index in the data set on Saccharomyces cerevisiae [1] (setting [9]) and in the data set on Saccharomyces cerevisiae [2] were 0.3726 ± 0.0017 and 0.384 ± 0.02, respectively.

Regarding IIIGTLLYVNVR, the protein stability index in the data set with Saccharomyces cerevisiae [1] (setting [3]) came out at 0.279 ± 0.0059; in the data set on Saccharomyces cerevisiae [1] (setting [4]), 0.323 ± 0.033; with Saccharomyces cerevisiae [1] (setting [5]) it was 0.243 ± 0.03; in the data set with Saccharomyces cerevisiae [1] (setting [6]) it was 0.403 ± 0.012; in the data set on Saccharomyces cerevisiae [1] (setting [7]) it was 0.188 ± 0.018; with Saccharomyces cerevisiae [1] (setting [8]), 0.215 ± 0.029. The protein stability index was 0.39 ± 0.041 with Saccharomyces cerevisiae [1] (setting [9]) and 0.29 ± 0.022 in the data set with Saccharomyces cerevisiae [2].

As to IKRLKEVARHVS, the protein stability index in the data set on Saccharomyces cerevisiae [1] (setting [3]) worked out at 0.623 ± 0.057; with Saccharomyces cerevisiae [1] (setting [4]), 0.706 ± 0.017; in the data set with Saccharomyces cerevisiae [1] (setting [5]), 0.645 ± 0.03; in the data set on Saccharomyces cerevisiae [1] (setting [6]) it was 0.694 ± 0.0085; in the data set on Saccharomyces cerevisiae [1] (setting [7]), 0.265 ± 0.019; in the data set on Saccharomyces cerevisiae [1] (setting [8]) it was 0.256 ± 0.031. For the same sequence, the protein stability index with Saccharomyces cerevisiae [1] (setting [9]) was found to be 0.4381 ± 0.0021; in the data set on Saccharomyces cerevisiae [2], 0.44 ± 0.054.

For the sequence ILGQSVIMRIKM, the protein stability index in the data set with Saccharomyces cerevisiae [1] (setting [3]) stood at 0.673 ± 0.035; in the data set on Saccharomyces cerevisiae [1] (setting [4]) it was 0.7301 ± 0.0028; with Saccharomyces cerevisiae [1] (setting [5]), 0.615 ± 0.027; in the data set with Saccharomyces cerevisiae [1] (setting [6]), 0.7007 ± 0.00077; in the data set with Saccharomyces cerevisiae [1] (setting [7]), 0.606 ± 0.0061; with Saccharomyces cerevisiae [1] (setting [8]) it was 0.636 ± 0.02. Moreover, the protein stability index with Saccharomyces cerevisiae [1] (setting [9]) worked out at 0.686 ± 0.014; in the data set with Saccharomyces cerevisiae [2] it was 0.714 ± 0.075.

As for ILLICLQFFNLF, the protein stability index with Saccharomyces cerevisiae [1] (setting [3]) stood at 0.427 ± 0.057; in the data set on Saccharomyces cerevisiae [1] (setting [4]), 0.544 ± 0.012; in the data set on Saccharomyces cerevisiae [1] (setting [5]) it was 0.394 ± 0.035; in the data set on Saccharomyces cerevisiae [1] (setting [6]), 0.5269 ± 0.0039; with Saccharomyces cerevisiae [1] (setting [7]), 0.3502 ± 0.00069; in the data set on Saccharomyces cerevisiae [1] (setting [8]), 0.36 ± 0.018. Besides, the protein stability index in the data set on Saccharomyces cerevisiae [1] (setting [9]) amounted to 0.505 ± 0.0075; with Saccharomyces cerevisiae [2] it was 0.4481 ± 0.0036.

On to ILRIYIPRWRRQ, for which the protein stability index came out at 0.648 ± 0.069 with Saccharomyces cerevisiae [1] (setting [3]); 0.6821 ± 0.0054 in the data set with Saccharomyces cerevisiae [1] (setting [4]); 0.62 ± 0.02 in the data set on Saccharomyces cerevisiae [1] (setting [5]); 0.7292 ± 0.0032 in the data set on Saccharomyces cerevisiae [1] (setting [6]); 0.119 ± 0.032 in the data set on Saccharomyces cerevisiae [1] (setting [7]); 0.132 ± 0.035 in the data set on Saccharomyces cerevisiae [1] (setting [8]). Also, the figures for the protein stability index in the data set with Saccharomyces cerevisiae [1] (setting [9]) and with Saccharomyces cerevisiae [2] were 0.332 ± 0.0091 and 0.219 ± 0.087, respectively.

INKKKKMIITKI: the protein stability index came to 0.617 ± 0.11 with Saccharomyces cerevisiae [1] (setting [3]); 0.726 ± 0.011 in the data set with Saccharomyces cerevisiae [1] (setting [4]); 0.662 ± 0.073 with Saccharomyces cerevisiae [1] (setting [5]); 0.742 ± 0.063 in the data set with Saccharomyces cerevisiae [1] (setting [6]); 0.227 ± 0.0025 in the data set with Saccharomyces cerevisiae [1] (setting [7]); 0.253 ± 0.043 with Saccharomyces cerevisiae [1] (setting [8]). The protein stability index in the data set with Saccharomyces cerevisiae [1] (setting [9]) is 0.479 ± 0.015; in the data set with Saccharomyces cerevisiae [2], 0.427 ± 0.019.
